# Reference: patent US6218508A, “Anti-microbial proteins” (Novartis AG, priority 1993, dated 2001)
# Positions count from the first letter of the chain named.
# B1: SEQ ID No 1: anti-fungal protein of about 7 kDa from sugar beet leaf intercellular washing fluid, peak 3.1 in FIG. 3 (protein)
# chain: ITCGLVASKLAPCIGYLQGAPGPSAGCCGGIKGLNSAAASPADRKTACTCLKSAATSIKGINYGKAASLPRQCGVSVPYAISPNTNCNAIH
# B2: SEQ ID No 2: anti-fungal protein of about 7 kDa from sugar beet leaf intercellular washing fluid, peak 3.2 in FIG. 3 (protein)
# chain: B1 chain with I58M, V77I
# Tested on: C. beticola
# Assay: micro-titre plate bioassay of fungal growth inhibition
# Type: cell-based
# Settings: spores of C. beticola, 96 well micro-titre plates, absorbance at 620 nm; FIGS. 4 and 7: 10 ug protein
# Protocol: The thus obtained IWF is fractionated by cation exchange chromatography on a 10 ml CM-Sepharose column (Pharmacia LKB) pre-equilibrated in starting buffer (20 mM HAc (pH 4.5)). The fractionation is performed at 4° C. at a flow rate of 25 ml/h. Fractions of 3 ml are collected. Proteins not bound to the column are removed by extensive washing of the column with starting buffer. Bound proteins are eluted by applying to the column further starting buffer comprising stepwise increased salt concentrations: viz, 0.1 M NaCl, 0.3 M NACl and 0.5 M NaCl. The absorbance at 280 nm of the eluate is measured, and fractions judged to comprise protein are tested for their anti-fungal activity against C. beticola using the microtiter plate bioassay described previously (PCT Patent Application No. PCT/DK92/00108, Publication No. WO 92/17591, now assigned to Sandoz LTD). […] The inhibition of fungal growth is measured in 96 well micro-titre plates at 620 nm, essentially as described in WO 92/17591. […] The proteins, either alone or in combination with WIN N (which is purified from barley grain or stressed barley leaf as described by Hejgaard et al (FEBS Letters, 307, 389-392 (1992)), and/or a protein having a sequence corresponding to at least one of those given in SEQ ID Nos. 4-6, are incubated with spores of C. beticola. The assay mix (240 ul) contains 100 ul of potato dextrose broth (Difco), 40 ul protein sample (or buffer control) in 100 mM Tris and 20 mM NaCl (pH 8.0) as well as approximately 400 spores in 100 ul water. The micro-titre plates are sealed with tape to avoid evaporation and contamination and subsequently incubated at room temperature on an agitator operated at 200 rpm. The absorbance at 620 nm is measured each day for 8 days and plotted for each concentration of protein vs time.
row,Molecule,anti-fungal activity (inhibition of fungal growth)
1,"SEQ ID No 3: anti-fungal protein of 2.5-3 kDa from sugar beet leaf intercellular washing fluid, peaks 1 and 2 in FIG. 6 (SGECNMYGRCPPGYCCSKFGYCGVGRAYCG)",significant anti-fungal activity
2,B1,significant anti-fungal activity
3,B2,significant anti-fungal activity
